The conditions of data set [1]: Jones, 1996; cited from earlier work.
The conditions of data set [2]: Jones, 1996; cited from earlier work. The source holds these as a separate data set.
The target in a further data set is T1, DCMTase (Mus musculus, UniProt P13864).
T1 construct: DCMTase was purified from mouse erythroleukemia cells as previously described; endogenous in cells; host or cells: mouse erythroleukemia (MEL) cells; enzyme purified from them
The data set can be described thus: Steady-state kinetic assay: initial velocity, substrate inhibition, DNA length. The settings on record: concentrations up to 30 times Km^AdoMet. It counts as biochemical. Here is the method:
After preincubation at room temperature for up to 10 minutes, reactions were initiated by the addition of poly(dI.dC:dI.dC) and, if indicated, inhibitor DNA or reaction products. […] Single-stranded DNA was heated to 90° C. and quick cooled on ice, prior to initiation of the reaction. Freeze-thawed DNA produced equivalent results. Incubations were at 37° C. for 60 minutes. The poly(dI.dC:dI.dC) concentrations were 2.0, 4.0, 8.0, 16, 35, 80, 160, 250, 400, 700 and 1000 pM. In some experiments, GC-box a/b was the substrate, using 100 nM DCMTase and DNA concentrations of 0.20, 0.40, 1.0, 2.0, 4.0, 8.0, 15, 23 and 35 μM. […] The radioactivity above the background, determined from assays without added poly(dI.dC:dI.dC), was converted to initial velocities and expressed as picomoles of methyl groups transferred to poly(dI.dC:dI.dC) per hour and plotted in double reciprocal form. […]
The Michaelis-Menton equation was used for studies into DNA length contributions to catalysis using KaliedaGraph 2.1.2 (Synergy Software). […] All steady-state data were analyzed using regression analyses of the appropriate initial velocity equation, listed below, using the Cleland programs (Cleland, W. W., 1979, Statistical analysis of enzyme kinetic data. Methods in Enzymol. 63:103-138). […]

In data set [3] the target is T2, DNA cytosine-5 methyltransferase (DCMTase, Dnmt1) (Mus musculus, UniProt P13864 P13864:1-1620). The data set is described as follows: inhibition; Kis, noncompetitive with poly(dIdC:dIdC); Kii 6800 +/- 1200 nM; Tris pH 8.0, 37 C. To be noted: tags: none; purified from mouse erythroleukemia (MEL) cells. Here is the method:
For these reasons it was presumed that single-stranded GC-box substrates could act as dead-end inhibitors of the reaction with poly(dI.dC:dI.dC). Dead-end inhibitors can provide a strong methodology for assessing whether a kinetic mechanism is random or ordered. Inhibition of poly(dI.dC:dI.dC) methylation by single-stranded GC-box b was studied at 15 μM AdoMet. The data were best fit by equation 5, a standard equation for noncompetitive inhibition, and generated the intersecting double reciprocal pattern shown in FIG. 13. The inhibition constants were determined to be Kᵢₛ=3.6+/−1.5 μM and Kᵢᵢ=6.8+/−1.2 μM (Table 4). Kᵢᵢ is the inhibition constant associated with an intercept effect and Kᵢₛ is the inhibition constant associated with a slope effect from families of double reciprocal plots.

Data set [4] addresses T2, DNA cytosine-5 methyltransferase …. The data set is described as follows: EMSA; unit printed as mM (text indicates micromolar). To be noted: tags: none; purified from mouse erythroleukemia (MEL) cells. The method, then:
Gel mobility shift assays (GMSA) were performed with minor revisions to the original procedures (Fried, M., & Crothers, D. M., 1981, Equilibria and kinetics of the lac repressor-operator interactions by polyacrylamide gel electrophoresis, Nucleic Acids Res. 9:6505-6525; Garner, M. M. & Revzin, A., 1981, A gel electrophoresis method for quantifying the binding proteins to specific DNA regions: applications to components of the Escherichia coli lactose operon regulatory system, Nucleic Acids Res. 13:3047-3060). All reactions were done in 100 mM Hepes pH 7.4, 10 mM EDTA, 10 mM DTT, […], 5% glycerol using the indicated P-labeled DNA and DCMTase concentrations, incubated on ice for 5 minutes and loaded on a 1×TBE(89 mM Tris-HCl pH 8.3, 89 mM boric acid, 2 mM EDTA), 6% polyacrylamide gel. Electrophoresis was done at 250 V, 9 mA for 2 hours at 4° C. and the dried gel was exposed to film overnight. The reaction conditions for buffer, temperature, incubation time, cofactor addition and gel composition have all been optimized. Only slightly better complex resolution was obtained under the listed conditions compared to a 10 minute incubation at 37° C. prior to gel loading at room temperature and containing either cofactor S-adenosyl-L-methionine, product S-adenosyl-L-homocysteine, or the AdoMet analog sinefungin. Hepes reaction buffer at pH 7.4 produced sharper banding than Tris-HCl at pH 8.0. […] Subsequent assays used a limiting and constant enzyme concentration with varying DNA concentrations.
(§1) Steady-state kinetic analyses of the DCMTase with the same 30 base-pair DNA substrates used in these studies indicate that Kₘ^DNA is 1000- to 50,000-fold higher (Flynn, J., et al., 1996, Murine DNA cytosine-C5 methyltransferase: Pre-steady- and steady-state kinetic analyses with regulatory DNA sequences, Biochemistry 35:7308-7315) than the DNA concentrations used to generate FIG. 2 and used by Reale et al, 1995, supra. […] Therefore, the stability of protein:DNA was determined by keeping the enzyme at a constant concentration (100 nM) and varying the amount of added DNA (Dubey & Roberts, 1992, supra).
On the technique in general: In EMSA bound probe runs differently from free probe, usually more slowly.

The target is the same in data set [5]. The data set can be described thus: EMSA; unit printed as mM (text indicates micromolar); free enzyme. To be noted: tags: none; purified from mouse erythroleukemia (MEL) cells. Here is the method: (§2) Gel mobility shift assays (GMSA) were performed with minor revisions to the original procedures (Fried, M., & Crothers, D. M., 1981, Equilibria and kinetics of the lac repressor-operator interactions by polyacrylamide gel electrophoresis, Nucleic Acids Res. 9:6505-6525; Garner, M. M. & Revzin, A., 1981, A gel electrophoresis method for quantifying the binding proteins to specific DNA regions: applications to components of the Escherichia coli lactose operon regulatory system, Nucleic Acids Res. 13:3047-3060). […]
as §1

For data set [6] the target is unchanged. The data set can be described thus: inhibition; Kii, uncompetitive with poly(dIdC:dIdC); 25 +/- 10 nM competitive with AdoMet; calculated KI 2.5 nM for DCMTase:poly(dIdC:dIdC) complex; Tris pH 8.0, 10 mM EDTA. The settings on record: tags: none; purified from mouse erythroleukemia (MEL) cells.
For data set [7] the target is unchanged. The data set can be described thus: inhibition; substrate inhibition; KmDNA 0.31 +/- 0.13 µM. To be noted: tags: none; purified from mouse erythroleukemia (MEL) cells; label: 32P (gel shift). Here is the method: To distinguish between this and alternative explanations, a short 30 base-pair DNA substrate was tested for inhibition at high concentrations. […] Initial velocity data for both substrates were fit to equation 1, which is a standard equation for analyzing substrate inhibition. Kₘ^DNA was determined to be 5.5+/−0.9 pM and 0.31+/−0.13 μM, and Kᵢ^DNA was 1010+/−170 pM and 43+/−22 μM for poly(dI.dC:dI.dC) and GC-box a/b, respectively (Table 3). In both cases, DNA concentrations greater than 20 times Kₘ^DNA caused substrate inhibition. AdoMet utilization was calculated to be less than 0.5%. Product inhibition by S-adenosyl homocysteine formation is therefore unlikely. AdoMet substrate inhibition was not observed at concentrations up to 30 times Kₘ^AdoMet. The substrate inhibition observed implicates a second DNA molecule binding to the enzyme and inhibiting catalysis.

Data set [8] has the same target. The data set is described as follows: EMSA; unit printed as mM (text indicates micromolar); Hepes pH 7.4, 10 mM EDTA, on ice. To be noted: tags: none; purified from mouse erythroleukemia (MEL) cells; label: 32P (gel shift). The method, then: as §2, §1

T2 sequence (P13864 whole entry, one chain of several): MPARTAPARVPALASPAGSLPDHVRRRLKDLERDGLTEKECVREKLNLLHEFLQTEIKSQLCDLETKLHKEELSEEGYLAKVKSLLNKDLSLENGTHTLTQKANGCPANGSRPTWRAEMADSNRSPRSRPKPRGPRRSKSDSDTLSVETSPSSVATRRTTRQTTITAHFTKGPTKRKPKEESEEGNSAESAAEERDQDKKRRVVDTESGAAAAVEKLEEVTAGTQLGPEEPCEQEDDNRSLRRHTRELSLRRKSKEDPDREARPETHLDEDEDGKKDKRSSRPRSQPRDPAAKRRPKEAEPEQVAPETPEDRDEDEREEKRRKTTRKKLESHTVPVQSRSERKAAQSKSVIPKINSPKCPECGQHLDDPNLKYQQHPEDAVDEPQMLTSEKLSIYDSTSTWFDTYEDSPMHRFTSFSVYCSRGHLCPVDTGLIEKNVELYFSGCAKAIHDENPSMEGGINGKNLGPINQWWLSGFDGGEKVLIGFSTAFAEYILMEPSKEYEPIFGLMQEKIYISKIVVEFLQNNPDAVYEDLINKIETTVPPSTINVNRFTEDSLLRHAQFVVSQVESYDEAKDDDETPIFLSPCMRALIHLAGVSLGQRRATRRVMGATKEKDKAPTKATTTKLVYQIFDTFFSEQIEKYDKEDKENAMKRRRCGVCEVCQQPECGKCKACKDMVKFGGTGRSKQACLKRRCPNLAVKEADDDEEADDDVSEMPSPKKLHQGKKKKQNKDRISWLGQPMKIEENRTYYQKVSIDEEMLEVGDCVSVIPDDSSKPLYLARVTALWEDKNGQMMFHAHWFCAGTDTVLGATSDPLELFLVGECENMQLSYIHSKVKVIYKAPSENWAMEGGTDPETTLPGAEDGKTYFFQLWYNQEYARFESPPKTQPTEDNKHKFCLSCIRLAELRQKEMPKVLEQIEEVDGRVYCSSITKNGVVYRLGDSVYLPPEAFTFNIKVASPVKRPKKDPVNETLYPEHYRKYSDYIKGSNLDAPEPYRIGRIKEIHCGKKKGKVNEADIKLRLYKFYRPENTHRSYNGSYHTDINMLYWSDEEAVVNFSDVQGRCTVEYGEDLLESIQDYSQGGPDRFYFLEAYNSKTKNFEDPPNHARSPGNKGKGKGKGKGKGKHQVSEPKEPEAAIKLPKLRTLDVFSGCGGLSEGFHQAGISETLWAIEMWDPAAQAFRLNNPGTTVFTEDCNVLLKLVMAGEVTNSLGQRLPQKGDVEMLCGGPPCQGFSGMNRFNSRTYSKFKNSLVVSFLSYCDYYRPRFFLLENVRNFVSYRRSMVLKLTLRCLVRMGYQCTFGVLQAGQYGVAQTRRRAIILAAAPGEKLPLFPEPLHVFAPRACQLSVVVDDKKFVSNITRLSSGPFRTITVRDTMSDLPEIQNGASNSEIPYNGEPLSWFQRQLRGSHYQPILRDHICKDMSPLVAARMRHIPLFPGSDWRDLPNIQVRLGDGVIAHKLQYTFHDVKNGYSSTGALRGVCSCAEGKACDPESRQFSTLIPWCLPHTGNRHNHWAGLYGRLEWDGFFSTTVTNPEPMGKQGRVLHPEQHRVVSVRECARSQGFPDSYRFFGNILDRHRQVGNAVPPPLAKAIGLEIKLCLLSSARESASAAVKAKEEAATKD
T1 sequence (P13864 whole entry): as the sequence (P13864 whole entry, one chain of several) above

With `Nc1ncn([C@H]2C[C@H](O)[C@@H](CO)O2)c(=O)n1` [5-Aza-deoxycytidine, 5-aza-2′-deoxycytidine], the stability in solution entry in [1] was “unstable in solution”. Moreover, the carcinogenicity and mutagenicity result in [2] is “may be carcinogenic as well as mutagenic”.
In the case of `C[S+](CC[C@H](N)C(=O)[O-])C[C@H]1O[C@@H](n2cnc3c(N)ncnc32)[C@H](O)[C@@H]1O` (stereo partly drawn) [AdoMet, S-adenosyl-L-methionine], at DCMTase, the AdoMet substrate inhibition entry is recorded as “not observed”.
As a reminder, the Kd is the constant that tells how readily two partners part at equilibrium. In the case of CTGGATCCTTGCCCCGCCCCTTGAATTCCC (ssDNA) [GC-box b], the Ki in data set [3] stood at 3600 nM. This molecule yielded a dissociation constant (Kd) in data set [4] of 1300 nM.
In turn, CTGGATCCTTGCCCCGCCCCTTGAATTCCC (ssDNA, 5mC at position 15 (central CpG)) [GC-box bMET] returned a Kd in data set [5] of 880 nM. The Ki in data set [6] is 20 nM.

B1: GC-box a/b (dsDNA)
DNA 1: GGGAATTCAAGGGGCGGGGCAAGGATCCAG
DNA 2: CTGGATCCTTGCCCCGCCCCTTGAATTCCC
Regarding B1, the Ki in [7] stood at 43000 nM. For the same molecule, the Kd in data set [8] was 420 nM.

(Values after patent US20030114402A1, “Modulators of DNA cytosine-5 methyltransferase and methods for use thereof” (The Regents of the University of California, priority 1997, published 2003).)
